The Human Domainome abundance scans (Beltran et al. 2025)

B1: Lysine-specific demethylase 2B, residues 656 to 722; numbered along this chain, Q8NHM5 (parent)
chain: LPHTAVCLVCGEAGKEDTVEEEEGKFNLMLMECSICNEIIHPGCLKIKESEGVVNDELPNCWECPKC

Variants of: B1
Assay: abundance fitness (aPCA) (normalised: wild type 0, dead -1); higher = more abundant; growth selection in yeast, the domain comes from the species named
Conditions: Homo sapiens

Abundance fitness, by site and new letter:
C36: V -0.921; R -0.72; E -0.736; I -0.477; G -0.794; L -0.643; M -0.619; H -1.18; N -0.707; S -0.994; A -0.78; D -0.549; T -0.961; W -1.38; F -1.21
N27: C -0.706; E -0.044; V -0.472; A 0.091; K 0.064; I -0.275; D -0.058; G -0.113; S -0.085; T -0.169; Q -0.206; P -0.038; Y -0.179; L -0.137; M 0.077; R -0.036; F -0.22
L28: M 0.364; N 0.476; K 0.152; H 0.118; S 0.068; D -0.068; Y -0.169; C -0.16; G -0.076; T 0.241; P -0.162; F 0.081; R -0.148; A 0.124; W 0.039
E22: A 0.032; T 0.171; L -0.011; S -0.01; N -0.162; H -0.099; W -0.308; I -0.131; Q 0.086; K 0.261; V -0.049; Y -0.291; D -0.153; C -0.235; P -0.449; G -0.009; M 0.113
E38: F -0.69; Q -0.098; A -0.356; H -0.566; D -0.294; S -0.06; G -0.286; T -0.57; R 0.104; W -0.163; K -0.206; N -0.402; V -0.13; P -0.723; C -0.291; I -0.085; M 0.066
M29: S 0.039; H -0.31; G -0.247; W -0.522; I -0.652; C -0.026; V -0.318; L -0.274; D -0.552; A -0.297; E -0.362; Q -0.15; R 0.278; P -0.267
L30: F -0.778; C -0.232; M -0.373; H -0.603; A -0.35; Q -0.337; W -0.309; N -0.152; P -0.435; K -0.034; R -0.196; S -0.452; T -0.212; G -0.209
E21: A 0.107; I -0.566; H 0.264; G 0.12; D -0.028; W -0.354; L -0.284; F -0.559; Q -0.324; R 0.034; C -0.068; P 0.033; Y -0.035; S 0.305; V 0.06; K 0.022; T 0.238; M -0.062
V19: W -0.429; Y -0.295; R 0.056; M -0.067; L 0.017; T 0.013; I -0.131; S -0.151
K25: L -0.441; R -0.324; T -0.432; G -0.33; P -0.787; C -0.329; I -0.453; S -0.348; W -0.859; M -0.238; N -0.118; A -0.242; H -0.31; Y -0.677; F -0.602; V -0.525
E20: Q -0.126; G 0.035; T -0.169; D -0.276; R 0.033; W -0.4; S -0.191; H -0.176; P -0.081; F -0.343; C -0.105; V -0.03; L -0.146; A -0.046
I40: A 0.008; C -0.06
